In IntAct's records for PubMed 18278056:

B1: Insulin receptor substrate 2 (Mus musculus), P81122 (parent)
chain: MASAPLPGPPASAGGDGPNLNNNNNNNNHSVRKCGYLRKQKHGHKRFFVLRGPGTGGDEASAAGGSPPQPPRLEYYESEKKWRSKAGAPKRVIALDCCLNINKRADAKHKYLIALYTKDEYFAVAAENEQEQEGWYRALTDLVSEGRSGEGGSGTTGGSCSASLPGVLGGSAGAAGCDDNYGLVTPATAVYREVWQVNLKPKGLGQSKNLTGVYRLCLSARTIGFVKLNCEQPSVTLQLMNIRRCGHSDSFFFIEVGRSAVTGPGELWMQADDSVVAQNIHETILEAMKALKELFEFRPRSKSQSSGSSATHPISVPGARRHHHLVNLPPSQTGLVRRSRTDSLAATPPAAKCTSCRVRTASEGDGGAAGGAGTAGGRPMSVAGSPLSPGPVRAPLSRSHTLSAGCGGRPSKVTLAPAGGALQHSRSMSMPVAHSPPAATSPGSLSSSSGHGSGSYPLPPGSHPHLPHPLHHPQGQRPSSGSASASGSPSDPGFMSLDEYGSSPGDLRAFSSHRSNTPESIAETPPARDGSGGELYGYMSMDRPLSHCGRPYRRVSGDGAQDLDRGLRKRTYSLTTPARQRQVPQPSSASLDEYTLMRATFSGSSGRLCPSFPASSPKVAYNPYPEDYGDIEIGSHKSSSSNLGADDGYMPMTPGAALRSGGPNSCKSDDYMPMSPTSVSAPKQILQPRLAAALPPSGAAVPAPPSGVGRTFPVNGGGYKASSPAESSPEDSGYMRMWCGSKLSMENPDPKLLPNGDYLNMSPSEAGTAGTPPDFSAALRGGSEGLKGIPGHCYSSLPRSYKAPCSCSGDNDQYVLMSSPVGRILEEERLEPQATPGAGTFGAAGGSHTQPHHSAVPSSMRPSAIGGRPEGFLGQRCRAVRPTRLSLEGLQTLPSMQEYPLPTEPKSPGEYINIDFGEAGTRLSPPAPPLLASAASSSSLLSASSPASSLGSGTPGTSSDSRQRSPLSDYMNLDFSSPKSPKPSTRSGDTVGSMDGLLSPEASSPYPPLPPRPSTSPSSLQQPLPPAPGDLYRLPPASAATSQGPTAGSSMSSEPGDNGDYTEMAFGVAATPPQPIVAPPKPEGARVASPTSGLKRLSLMDQVSGVEAFLQVSQPPDPHRGAKVIRADPQGGRRRHSSETFSSTTTVTPVSPSFAHNSKRHNSASVENVSLRKSSEGSSTLGGGDEPPTSPGQAQPLVAVPPVPQARPWNPGQPGALIGCPGGSSSPMRRETSVGFQNGLNYIAIDVRGEQGSLAQSQPQPGDKNSWSRTRSLGGLLGTVGGSGASGVCGGPGTGALPSASTYASIDFLSHHLKEATVVKE

Variants of: B1
Conditions: with INSR

| Variant | effect of a mutation on the interaction |
| --- | --- |
| Y624A | disrupting interaction |
| I631A | disrupting interaction |
| Y621A | disrupting interaction |

Results, then the variant that gave them:

| effect of a mutation on the interaction | Variant |
| --- | --- |
| disrupting interaction | Y628F |
| disrupting interaction | I633A |
| disrupting interaction | G629A |
| disrupting interaction | D627A |

Variants of: B1
Conditions: with igf1r_human IGF1R

| effect of a mutation on the interaction | Variant |
| --- | --- |
| disrupting interaction | Y628F |
